According to patent US20210300993A1 (AVALON GLOBOCARE, published 2021):
One block for each binder: values may come before it.

Columns and labels:
IFNγ [1] = biological target: T1, IFNγ (UniProt P01579 24-166, limits assumed); test: MicroScale Thermophoresis, 5 nM NT647-labeled receptor fusion against a gradient of ligand, 25 C
T1 sequence (looked up): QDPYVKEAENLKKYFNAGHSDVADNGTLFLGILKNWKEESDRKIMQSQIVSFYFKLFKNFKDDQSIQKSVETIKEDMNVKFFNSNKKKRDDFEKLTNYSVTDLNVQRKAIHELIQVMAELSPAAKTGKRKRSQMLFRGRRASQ
Procedure: (§1) The affinity of QTY modified cytokine receptor fused with Fc of IgG for their respective native ligands was measured using MicroScale Thermophoresis (MST). Changes in thermophoretic movement for labeled proteins upon ligand-binding were recorded and plotted as a function of ligand concentration.
(§2) MicroScale Thermophoresis (MST) is an optical method detecting changes in thermophoretic movement and TRIC of the protein-attached fluorophore upon ligand binding. Active labelled proteins contribute to the thermophoresis signal upon ligand binding. […] Herein ligand binding experiments were carried out with 5 nM NT647-labeled protein in 1× PBS, 10 mM DTT buffer with different concentration of arginine, against a gradient of respective ligands on a Monolith NT.115 pico instrument at 25° C. Synthesized receptors were labeled with Monolith NT™ 2nd generation protein labeling kit RED-NHS (NanoTemper Technologies) so as to obtain unique fluorescent signals. MST time traces were recorded and analyzed to obtain the highest possible signal-to-noise levels and amplitudes, >5 Fnorm units. The recorded fluorescence was plotted against the concentration of ligand, and curve fitting was performed using the Kd fit formula derived from the law of mass action. For clarity, binding graphs of each independent experiment were normalized to the fraction bound (0=unbound, 1=bound). MST experiments were performed in the Center for Macromolecular Interactions at Harvard Medical School.

IFNγ [2] = biological target: T1, IFNγ; test: MicroScale Thermophoresis (MST), fluorescently labelled receptor fusion titrated with IFNγ
Excerpt: (§3) FIG. 3A-3D. MST ligand binding measurements. The receptors were labeled with fluorescent dye. The ligands were purchased commercially from and dissolved in di water. (FIG. 3A) IL4Rα^QTY-Fc with IL4; (FIG. 3B) IL10Rα^QTY-Fc with IL10; (FIG. 3C) IFNγR1^QTY-Fc with IFNγ; (FIG. 3D) […].
as §2, with “MST experiments were performed in the Center for Macromolecular Interactions at Harvard Medical School.” left out

IL10 [3] = biological target: T2, IL10 (UniProt P22301 19-178); test: MicroScale Thermophoresis, 5 nM NT647-labeled receptor fusion against a gradient of ligand, 25 C
T2 sequence (P22301 19-178 limits assumed): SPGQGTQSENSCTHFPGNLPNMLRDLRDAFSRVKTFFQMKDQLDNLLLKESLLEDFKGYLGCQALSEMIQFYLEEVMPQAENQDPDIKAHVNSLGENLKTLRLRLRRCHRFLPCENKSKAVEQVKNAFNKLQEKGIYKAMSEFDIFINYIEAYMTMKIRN
Procedure: as §1, §2

IL10 [4] = biological target: T2, IL10; test: MicroScale Thermophoresis (MST), fluorescently labelled receptor fusion titrated with IL10
Excerpt: as §3
as §2, with “MST experiments were performed in the Center for Macromolecular Interactions at Harvard Medical School.” left out

IL29 [5] = biological target: T3, IL29 (UniProt Q8IU54 20-200, limits assumed); test: MicroScale Thermophoresis, 5 nM NT647-labeled receptor fusion against a gradient of ligand, 25 C
T3 sequence (Q8IU54 20-200 limits assumed): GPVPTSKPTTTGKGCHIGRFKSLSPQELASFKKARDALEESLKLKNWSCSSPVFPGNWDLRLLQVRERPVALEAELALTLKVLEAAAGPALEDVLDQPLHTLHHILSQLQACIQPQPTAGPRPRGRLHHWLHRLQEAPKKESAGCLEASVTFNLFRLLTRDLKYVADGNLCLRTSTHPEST
Procedure: as §1, §2

IL29 [6] = biological target: T3, IL29; test: MicroScale Thermophoresis (MST), fluorescently labelled receptor fusion titrated with IL29
Excerpt: as §3
as §2, with “MST experiments were performed in the Center for Macromolecular Interactions at Harvard Medical School.” left out

- Kd (IFNγ [1]): 6.2 nM
- EC50 (read off the curve) (IFNγ [2]): ~9 nM
B1: IFNγR1^QTY-Fc (HUMAN Interferon gamma receptor 1-Fc fusion) (Fc fusion)
chain: EMGTADLGPSSVPTPTNVTIESYNMNPIVYWEYQIMPQVPVFTVEVKNYGVKNSEWIDACINISHHYCNISDHVGDPSNSLWVRVKARVGQKESAYAKSEEFAVCRDGKIGPPKLDIRKEEKQIMIDIFHPSVFVNGDEQEVDYDPETTCYIRVYNVYVRMNGSEIQYKILTQKEDDCDEIQCQLAIPVSSLNSQYCVSAEGVLHVWGVTTEKSKEVCITIFNSSIKGSQWTPTTAAQQQYQTQSQTYTCFYIKKTETSQVAPAHHHHHHHHHHGSKLVDPRGPTIKPCPPCKCPAPNLLGGPSVFIFPPKIKDVLMISLSPIVTCVVVDVSEDDPDVQISWFVNNVEVHTAQTQTHREDYNSTLRVVSALPIQHQDWMSGKEFKCKVNNKDLPAPIERTISKPKGSVRAPQVYVLPPPEEEMTKKQVTLTCMVTDFMPEDIYVEWTNNGKTELNYKNTEPVLDSDGSYFMYSKLRVEKKNWVERNSYSCSVVHEGLHNHHTTKSFSRTPGK
modifications: labeled with NT647 RED-NHS fluorescent dye for MST

- Kd (IL10 [3]): 1.6 nM
- EC50 (read off the curve) (IL10 [4]): ~4 nM
B2: IL10Rα^QTY-Fc (HUMAN Interleukin-10 receptor subunit alpha-Fc fusion) (Fc fusion)
chain: HGTELPSPPSVWFEAEFFHHILHWTPIPNQSESTCYEVALLRYGIESWNSISNCSQTLSYDLTAVTLDLYHSNGYRARVRAVDGSRHSNWTVTNTRFSVDEVTLTVGSVNLEIHNGFILGKIQLPRPKMAPANDTYESIFSHFREYEIAIRKVPGNFTFTHKKVKHENFSLLTSGEVGEFCVQVKPSVASRSNKGMWSKEECISLTRQYFTVTNTTTYYAYTQQQSGAQAYCQAQQLYVRRRKKTETSQVAPAHHHHHHHHHHGSKLVDPRGPTIKPCPPCKCPAPNLLGGPSVFIFPPKIKDVLMISLSPIVTCVVVDVSEDDPDVQISWFVNNVEVHTAQTQTHREDYNSTLRVVSALPIQHQDWMSGKEFKCKVNNKDLPAPIERTISKPKGSVRAPQVYVLPPPEEEMTKKQVTLTCMVTDFMPEDIYVEWTNNGKTELNYKNTEPVLDSDGSYFMYSKLRVEKKNWVERNSYSCSVVHEGLHNHHTTKSFSRTPGK
modifications: labeled with NT647 RED-NHS fluorescent dye for MST

- Kd (IL29 [5]): 11.5 nM
- EC50 (read off the curve) (IL29 [6]): ~10 nM
B3: IFNλR1^QTY-Fc (HUMAN Interferon lambda receptor 1-Fc fusion) (Fc fusion)
chain: RPRLAPPQNVTLLSQNFSVYLTWLPGLGNPQDVTYFVAYQSSPTRRRWREVEECAGTKELLCSMMCLKKQDLYNKFKGRVRTVSPSSKSPWVESEYLDYLFEVEPAPPVLVLTQTEEILSANATYQLPPCMPPLDLKYEVAFWKEGAGNKTLFPVTPHGQPVQITLQPAASEHHCLSARTIYTFSVPKYSKFSKPTCFLLEVPEANWAYQTQPSQQTQQQTTAAGGTTWKTLMGNTETSQVAPAHHHHHHHHHHGSKLVDPRGPTIKPCPPCKCPAPNLLGGPSVFIFPPKIKDVLMISLSPIVTCVVVDVSEDDPDVQISWFVNNVEVHTAQTQTHREDYNSTLRVVSALPIQHQDWMSGKEFKCKVNNKDLPAPIERTISKPKGSVRAPQVYVLPPPEEEMTKKQVTLTCMVTDFMPEDIYVEWTNNGKTELNYKNTEPVLDSDGSYFMYSKLRVEKKNWVERNSYSCSVVHEGLHNHHTTKSFSRTPGK
modifications: labeled with NT647 RED-NHS fluorescent dye for MST
